Publication PMC3605678 (The Journal of Biological Chemistry, 2013)
No end group written: not given here.

T1: MBP fusion of MKK5(PB1-D) (construct E, 16–130) (human, UniProt Q13163 16-130)
T1 sequence: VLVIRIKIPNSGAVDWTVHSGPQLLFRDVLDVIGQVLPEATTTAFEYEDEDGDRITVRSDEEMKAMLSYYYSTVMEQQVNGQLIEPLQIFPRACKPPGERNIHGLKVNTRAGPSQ

B1: pepMKK5 (peptide with the linear D-motif of MKK5) (peptide)
peptide: ASKPPGERNIHGLKVNTRA
B2: pepMEF2 (labeled MEF2A D-motif peptide) (peptide)
peptide: tetramethylrhodamin-SRKPDLRVVIPPS
B3: MBP fusion of MKK5 construct B (113–448) (domain or fragment, human, UniProt Q13163 113-448, looked up)
chain: GERNIHGLKVNTRAGPSQHSSPAVSDSLPSNSLKKSSAELKKILANGQMNEQDIRYRDTLGHGNGGTVYKAYHVPSGKILAVKVILLDITLELQKQIMSELEILYKCDSSYIIGFYGAFFVENRISICTEFMDGGSLDVYRKMPEHVLGRIAVAVVKGLTYLWSLKILHRDVKPSNMLVNTRGQVKLCDFGVSTQLVNSIAKTYVGTNAYMAPERISGEQYGIHSDVWSLGISFMELALGRFPYPQIQKNQGSLMPLQLLQCIVDEDSPVLPVGEFSEPFVHFITQCMRKQPKERPAPEELMGHPFIVQFNDGNAAVVSMWVCRALEERRSQQGPP
B4: GST-MEKK3(PB1) (MEKK3 PB1 domain, residues 42–126) (domain or fragment)
chain: QSDVRIKFEHNGERRIIAFSRPVKYEDVEHKVTTVFGQPLDLHYMNNELSILLKNQDDLDKAIDILDRSSSMKSLRILLLSQDRN
B5: ERK5 MAPK construct containing the N-terminal region of ERK5-(1–431) (domain or fragment)
chain: MAEPLKEEDGEDGSAEPPGPVKAEPAHTAASVAAKNLALLKARSFDVTFDVGDEYEIIETIGNGAYGVVSSARRRLTGQQVAIKKIPNAFDVVTNAKRTLRELKILKHFKHDNIIAIKDILRPTVPYGEFKSVYVVLDLMESDLHQIIHSSQPLTLEHVRYFLYQLLRGLKYMHSAQVIHRDLKPSNLLVNENCELKIGDFGMARGLCTSPAEHQYFMTEYVATRWYRAPELMLSLHEYTQAIDLWSVGCIFGEMLARRQLFPGKNYVHQLQLIMMVLGTPSPAVIQAVGAERVRAYIQSLPPRQPVPWETVYPGADRQALSLLGRMLRFEPSARISAAAALRHPFLAKYHDPDDEPDCAPPFDFAFDREALTRERIKEAIVAEIEDFHARREGIRQQIRFQPSLQPVASEPGCPDVEMPSPWAPSGDCAM

Experiments:
ERK2 = ERK2 (human, UniProt P28482 1-360); assay: fluorescence polarisation
[1] = target: B5; assay: fluorescence polarisation
[2] = target: B5; assay: fluorescence polarisation; remark: listed apart in the source
[3] = target: B5; assay: pull-down
[4] = target: T1, MBP fusion of MKK5(PB1-D) (construct E, …); assay: pull-down
[5] = target: Full-length MKK5 (MKK5_FL) (human, UniProt Q13163 1-448); assay: fluorescence polarisation

ERK2, sequence (P28482 whole entry): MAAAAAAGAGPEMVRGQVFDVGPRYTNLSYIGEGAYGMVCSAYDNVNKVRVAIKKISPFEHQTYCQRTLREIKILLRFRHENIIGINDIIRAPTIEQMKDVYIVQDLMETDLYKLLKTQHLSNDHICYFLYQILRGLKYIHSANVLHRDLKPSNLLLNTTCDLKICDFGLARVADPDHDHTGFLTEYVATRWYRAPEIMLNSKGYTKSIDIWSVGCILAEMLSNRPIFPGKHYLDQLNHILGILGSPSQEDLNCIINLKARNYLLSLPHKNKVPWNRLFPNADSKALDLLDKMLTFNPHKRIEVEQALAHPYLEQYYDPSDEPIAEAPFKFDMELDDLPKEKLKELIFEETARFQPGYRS

Work on B1 yielded a Kd (ERK2) greater than 100 µM and a Kd [1] of 4.2 µM.

B2: binds [2].

B3: binds [3].

B4: binds [4].

Binder B5 has a Kd [5] of less than 0.1 µM.
